Results reported in patent US20020102651A1 (Dana-Farber, published 2002).

Biological target: T1, human B7-4M (B7-4 membrane form), expressed on transfected COS or CHO cells (human, UniProt Q9NZQ7 19-290)
T1 construct: also called 292
Experiment: FACS on B7-4M-transfected COS cells
Experimental: COS cells were transfected with either vector DNA (pCDNAI), or an expression plasmid containing the B7-4M cDNA. After 72 hours, the tansfected COS cells were detached by incubation in PBS containing 0.5 mM EDTA for 30 min. at 37° C.
The ability of COS cells expressing B7-4M to bind to various T cell ligands and antibodies was tested. […] The ability of COS cells expressing B7-4M to bind to IgG and murine ICOS-his fusion protein was also tested. No binding of human B7-4 to murine ICOS was detected (FIG. 9).

T1 sequence (Q9NZQ7 19-290): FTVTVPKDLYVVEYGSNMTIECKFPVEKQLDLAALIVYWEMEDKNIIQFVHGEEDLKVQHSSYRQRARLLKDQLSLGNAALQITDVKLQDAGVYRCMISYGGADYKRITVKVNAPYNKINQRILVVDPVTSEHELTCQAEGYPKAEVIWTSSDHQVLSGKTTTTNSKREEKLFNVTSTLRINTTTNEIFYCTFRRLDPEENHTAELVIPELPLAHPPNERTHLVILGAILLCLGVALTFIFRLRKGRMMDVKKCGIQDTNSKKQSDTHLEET

binding result: no binding
B1: murine ICOS-his fusion protein (receptor, mouse, UniProt Q9WVS0 21-144, looked up)
chain: EINGSADHRMFSFHNGGVQISCKYPETVQQLKMRLFREREVLCELTKTKGSGNAVSIKNPMLCLYHLSNNSVSFFLNNPDSSQGSYYFCSLSIFDPPPFQERNLSGGYLHIYESQLCCQLKLWL
notes: not shown: his tag
